This experiment concerns the target T1, E. coli Skp with N-terminal 6xHis tag, purified (E. coli, UniProt P0AEU7 21-161).
T1 sequence (looked up): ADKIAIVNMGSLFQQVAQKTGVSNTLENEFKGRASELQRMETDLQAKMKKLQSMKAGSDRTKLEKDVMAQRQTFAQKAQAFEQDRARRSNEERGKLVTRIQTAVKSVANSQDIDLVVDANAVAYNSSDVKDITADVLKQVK
Put plainly: cell-based or functional assay.

1 molecule from article PMC9090332, “Reconstitution of surface lipoprotein translocation through the Slam translocon” (eLife, 2022) can be followed below.

B1: Moraxella catarrhalis transferrin binding protein B, C-terminal flag-tag (natural protein)
chain: CGGSGGSNPPAPTPIPNASGSGNTGNTGNAGGTDNTANAGNTGGASSGTGSANTPEPKYQDVPTDKNEKEQVSPIQEPAMGYGMALSKINLHNRQDTPLDEKNIITLDGKKQVAEGKKSPLPFSLDVENKLLDGYIAKMDKADKNAIRRRIESENKAKPLSEAELAEKIKEAVRKSYEFQQVMTSLENKIFHSNDGTTKATTRDLQYVDYGYYLANDANYLTVKTDKPKLWNSGPVGGVFYNGSTTAKELPTQDAVKYKGHWDFMTDVANKGNRFSEVKGTRQAGWWYGASSKDEYNRLLTDEKNKPDGYNGEYGHSSEFTVNFKEKKLTGGLFSNLQDSHKQKVTKTKRYDIDANIHGNRFRGSAIASDKEKDSETKHPFTSDAKDRLEGGFYGPKGEELAGKFLTDDNKLFGVFGAKQESKADKTEAILDAYALGAFNKNDANTFTPFTKKQLDNFGNAKKLVLGSTVINLVSTDATKNEFTEDKPKSATNKAGETLMVNDKVSVKTYGYGRNFEYLKFGELSVGGSHSVFLQGERTATTGDKAVPTEGKAKYLGNWVGYITGTGTGKSFNEAQDIADFDIDFKNKTVNGKLTTKGRTDPVFNITGEISGNGWTGKASTAKADAGGYNIDSNGTNKSIVIRDADVTGGFYGPNATEMGGSFTHNTNDSKASVVFGTKRQEEVKP
modifications: lipidated (processed by Lgt, Lsp, and Lnt)
With B1, the “protection of urea-unfolded purified TbpB from proteinase K with Skp (and LolA) added to empty liposomes, against SurA + Slam1 proteoliposomes (3.5% protection)” value is ≤ 10%.
